{
  "source": "patent US20110282033A1",
  "about": "(Ablynx, published 2011)",
  "binders": {"B1": {"name": "53-A6 (VHH)", "VHH": "EVQLVESGGGLVQPGGSRRLSCATSASITSISFMGWYRQAPGKQRELVAFIPSSGVPNYVGFAEGRFTISRDDAKNTVYLQMNGLKPEDTAVYYCYLQPLGGSGSWGQGTQVTVSS"}, "B2": {"name": "53-D6 (VHH)", "VHH": "EVQLVESGGGLVEAGGSLRLSCTASGGTFSTYAMGWFRQAPGKEREFAAAISRNGGSKGYKESVKGRFTISRDNAKNTVYLQMNSLKPEDTAVYYCAASRTYTYSTAMKDYNYWGQGTQVTVSS"}, "B3": {"name": "53-F7 (VHH)", "VHH": "EVQLVESGGALVQPGGSLRLSCAASGSIVSIDFMGWYRQAPGKQREVVTFITSGGSPNYVDSVEGRFTISRDNAKNTMYLQMNSLKPEDTAVYYCYMQSGTAGSWGQGTQVTVSS"}, "B4": {"name": "53-B7 (VHH)", "VHH": "EVQLVESGGGLVQAGGSLRLDCAASGRTSYAMGWFRQGTGKEREFVAALSPSGYYTYYEDSVKGRFSIHRDNAKNMVYLQMNSLTPEDTAVYYCAAGRHETASGILPNYWGQGIQVTVSS"}, "B5": {"name": "53-F9 (VHH)", "VHH": "EVQLVESGGGLVQAGGSLRLDCAASGRTSYAMGWFRQGTGKEREFVAAISPSGYYTYYEDSVKGRFFMHRDNAKNMVYLQMNSLTPEDTAVYYCAAGRHNTVSGILPDYWGRGIQVTVSS"}, "B6": {"name": "53-G8 (VHH)", "VHH": "KVQLVESGGGLVQAGGSLRLDCAASGRTSYAMGWFRQGTGKEREFVSAISPSGYYTYYEDSVKGRFSIHRDNAKNMVYLQMNSLTPEDTAVYYCAAGRHQTVSGILPDYWGQGIQVTVSS"}, "B7": {"name": "53-G7 (VHH)", "VHH": "EVQLVESGGGLVQAGGSLRLDCAASGRTSYAMGWFRQGTGKEREFVAAISPSGYYTYYEDSVKGRFFIHRDNAKNMVYLQMNSLTPEDTAVYYCAAGRHKTVSGILPDYWGQGIQVTVSS"}, "B8": {"name": "53-C4 (VHH)", "VHH": "EVQLVESGGGLVQAGGSLRLDCAASGRTSYAMGWFRQGTGKEREFVAAISPSGYYTYYEDSVKGRFSIHRDNAKNMVYLQMNSLTPEDTAVYYCAAGRHQTVSGILPDYWGQGIQVTVSS"}, "B9": {"name": "53-C7 (VHH)", "VHH": "EVQLVESGGGLVQAGGSLRLDCAASGRTSYAMGWFRQGTGQEREFVAAISPSGYYTYYEDSVKGRFNIHRDNTKNMVYLQMNSLTPEDTAVYYCAAGRHKTVSGILPDYWGQGIQVTVSS"}, "B10": {"name": "53-F3 (VHH)", "VHH": "EVQLVESGGGLVQPGGSLRLSCAAPGSIVSINNMGWYRQAPGKQRELVALITSGGTTTYADSVKGRFTISGDNAKKMVYLQMNSLKPEDTAVYYCNAVFTTDTRNWYDYWGQGTQVTVSS"}, "B11": {"name": "55-D5 (VHH)", "VHH": "EVQLVESGGALVQPGGSLRLSCAASGFTFRNYDMSWVRQAPGKGPEWVSSINSGGGSTYYADSVKGRFTISRDNAKNTLYLQMNSLKPEDTAVYYCATGLITTAQAMLEEYDYWGQGTQVTVSS", "notes": "Purified Nanobody"}, "B12": {"name": "73-E6 (VHH)", "VHH": "EVQLVESGGGLVQAGGSLRLSCAASGSTFTETPFTMHALSWYRQSEGKERELVAAISLAGTTNYADSVKGRFTISRDNGKKAVYLQMNSLKAEDTAVYYCNVGSWFQGYYAMDYWGEGTLVTVSS", "notes": "Purified Nanobody"}, "B13": {"name": "73-A9 (VHH)", "VHH": "EVQLVESGGGLVQPGESLSLSCTASGSAFGINSMGWYRQAPGKERELVAVMYSDSNTTYTDSVKGRFTISRDYAKNTVYLRMNSLKPEDTAVYFCHCEAIREPGDYYGWHYWGKGTLVTVSS", "notes": "Purified Nanobody"}, "B14": {"name": "73-A7 (VHH)", "VHH": "EVQLVESGGGLVQPGGSLRLSCAASGFTFGSYDMSWVRQAPGKGPEWVSAINSGGGTTYYADSVKGRFTISRDNAKNTLYLQMNSLKPEDTAVYYCATGRPLWDYSDYADFGSWGQGTQVTVSS", "notes": "Purified Nanobody"}, "B15": {"name": "55-B8 (VHH)", "VHH": "EVQLVESGGGLVQPGGSLRLSCTASTSIFSLYDMGWYRQAPGKERELVARITSGRSINYADSVKGRFTISRDNAKNTVYLQMNSLKPEDTAAYYCNANHHDWGTNWDFWGQGTQVTVSS", "notes": "Purified Nanobody"}, "B16": {"name": "53-A3 (VHH)", "VHH": "EVQLVESGGGLVQPGGSLRLSCAASGSIVRVDFMGWYRQAPGKQREVVTFITSGGSPNYVDSVTGRFTISRDNAKNTMYLQMNSLKPEDTAVYYCYIQSGTAGSWGQGTQVTVSS", "notes": "Purified Nanobody"}, "B17": {"name": "53-G10 (VHH)", "VHH": "EVQLVESGGGLVQAGGSLRLSCAASGLFFSFYNMGWFRQAPGKEREFVAIIRKTGGSTYYADSVKGRFTISRDNAKNTVYLQMDSLKPEDTAVYYCAAASSYYSDSYYYTRSDKYNYWGQGTQVTVSS", "notes": "Purified Nanobody"}, "B18": {"name": "53-A5 (VHH)", "VHH": "EVQLVESGGGLVQAGGSLRLTCVVSGRTYNNYVMGWFRQAPGKEREFVAGIDWSSSWSSTLYADSVKGRFTISRNNAKKTVSLQMNSLKPEDTAVYYCAANLGSKNPSLRPGREAYNYWGQGTQVTVSS", "notes": "Purified Nanobody"}, "B19": {"name": "53-H8 (VHH)", "VHH": "EVQLVESGGGLVQAGGSLRLTCVVSGRTYNNYVMGWFRQAPGKEREFVAGIDWSSSWTSTTLYADSVKGRFTISRNNAKKTVSLQMNSLKPEDTAVYYCAANLGSKNPSLRPGRETYNYWGQGAQVTVSS", "notes": "Purified Nanobody"}},
  "data": [
    {"molecular_target": "T1, Recombinant human PDGFRβ/Fc chimera (R&D Systems Cat #385 PR) (human, UniProt P09619 33-532)", "T1 construct": "extracellular domain; Bought reagent; also called PDGFRP-Fc; not shown: Fc part of the bought chimera (captured and detected with anti-human IgG)", "T1 sequence (P09619 33-532, change not shown)": "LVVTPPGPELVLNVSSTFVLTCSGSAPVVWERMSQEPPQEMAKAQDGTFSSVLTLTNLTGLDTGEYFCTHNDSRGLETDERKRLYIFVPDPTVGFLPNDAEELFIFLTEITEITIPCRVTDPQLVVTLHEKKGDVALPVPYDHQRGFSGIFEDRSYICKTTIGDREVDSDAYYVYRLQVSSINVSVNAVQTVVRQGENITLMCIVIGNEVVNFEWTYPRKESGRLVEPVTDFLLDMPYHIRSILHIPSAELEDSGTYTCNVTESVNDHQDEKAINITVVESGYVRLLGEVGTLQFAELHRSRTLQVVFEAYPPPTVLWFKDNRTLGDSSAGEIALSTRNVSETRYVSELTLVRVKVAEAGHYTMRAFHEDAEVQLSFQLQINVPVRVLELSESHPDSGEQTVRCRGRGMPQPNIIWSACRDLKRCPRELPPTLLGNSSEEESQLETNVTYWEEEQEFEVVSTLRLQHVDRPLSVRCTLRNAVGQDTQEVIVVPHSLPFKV", "assay": "ELISA binding screen on captured PDGFRβ-Fc and ELISA ligand competition", "protocol": "(§1) In order to determine binding specificity to PDGFRβ-Fc, the clones were tested in an ELISA binding assay setup, using the monoclonal phage pools. Shortly, 1 ug/ml of Fc-capturing Ab (Rabbit anti-human IgG, DAKO # A423) was coated on Maxisorp ELISA plates (Nunc) and free binding sites were blocked using 4% Marvel skimmed milk in PBS. Next, 0.1 ug/ml receptor in 2% Marvel/PBS was captured. After a wash step with PBS, 10 ul of supernatant from the monoclonal phage inductions of the different clones in 100 ul 2% Marvel PBS were allowed to bind to the captured PDGFRP-Fc. […] Binding specificity was determined based on OD values compared to controls having received no phage.\nClones tested in the PDGFRβ binding assay were also screened for their ability to block PDGF-BB binding to PDGFRβ-Fc. For this, Nanobody containing periplasmic extracts, or selected purified Nanobodies, were used in an ELISA-based ligand competition setup. In short, 1.0 ug/ml (80 nM) recombinant human PDGF-BB (R&D Systems #220-BB) was coated in 96 well Maxisorp microtiter plates (Nunc) and blocked with 4% Marvel skimmed milk in PBS. In parallel, 1 ug/ml (12 nM) PDGFRβ-Fc chimera was incubated with periplasmic extracts or purified Nanobody. After 1 hour, the receptor-Nanobody pre-mixes were incubated 1 hour with the coated ligand. Bound PDGFRβ-Fc was detected using HRP-conjugated goat anti-human IgG (Jackson Immunoresearch, Cat #109-035-098). Blocking activity was determined as loss of OD signal, as compared to wells where no Nanobodies, or irrelevant Nb, had been added.", "values": [
      {"binder": "B1", "binding result": "binds"},
      {"binder": "B2", "binding result": "binds"},
      {"binder": "B3", "binding result": "binds"},
      {"binder": "B4", "binding result": "binds"},
      {"binder": "B5", "binding result": "binds"},
      {"binder": "B6", "binding result": "binds"},
      {"binder": "B7", "binding result": "binds"},
      {"binder": "B8", "binding result": "binds"},
      {"binder": "B9", "binding result": "binds"},
      {"binder": "B10", "binding result": "binds"}
    ]},
    {"molecular_target": "T2, Recombinant human FGFR4/Fc chimera (R&D Systems Cat #685 FR) (human, UniProt P22455 22-369)", "T2 construct": "extracellular domain; Bought reagent; also called Fc-FGFR4; not shown: Fc part of the bought chimera (detected with anti-human IgG)", "T2 sequence (looked up)": "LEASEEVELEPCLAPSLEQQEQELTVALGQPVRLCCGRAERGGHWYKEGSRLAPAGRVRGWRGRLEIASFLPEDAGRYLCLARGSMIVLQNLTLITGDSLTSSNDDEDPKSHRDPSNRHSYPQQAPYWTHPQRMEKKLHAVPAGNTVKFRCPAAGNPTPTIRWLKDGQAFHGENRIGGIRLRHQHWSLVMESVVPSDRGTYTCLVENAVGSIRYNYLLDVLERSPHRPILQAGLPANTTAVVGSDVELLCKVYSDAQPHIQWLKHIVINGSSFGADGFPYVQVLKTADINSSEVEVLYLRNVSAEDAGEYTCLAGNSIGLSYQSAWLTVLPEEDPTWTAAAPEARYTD", "assay": "competition ELISA: FGFR4-Fc with heparin and MgCl2 pre-mixed with Nanobody, binding to coated acidic FGF (129 nM), detection with HRP anti-human IgG", "protocol": "Clones tested in the FGFR4 binding assay were also screened for their ability to block acidic FGF binding to FGFR4-Fc. For this, purified Nanobodies, were used in an ELISA-based ligand competition setup. In short, 2.0 ug/ml (129 nM) human FGF (R&D Systems Cat #232-FA/CF) was coated in 96 well Maxisorp microtiter plates (Nunc) and blocked with 4% Marvel skimmed milk in PBS. In parallel, 0.25 ug/ml (1.9 nM) FGFR4-Fc chimera plus 2.5 μg/ml heparin and 10 mM MgCl₂ were incubated with periplasmic extracts or purified Nanobody. After 1 hour, the receptor-Nanobody pre-mixes were incubated 1 hour with the coated ligand. Bound FGFR4-Fc was detected using HRP-conjugated goat anti-human IgG (Jackson Immunoresearch, Cat #109-035-098). Blocking activity was determined as loss of OD signal, as compared to wells where irrelevant Nanobody had been added. […] Ligand is coated at 129 nM and receptor is added at […].", "units": {"IC50 (read off the curve)": "nM"}, "values": [
      {"binder": "B11", "IC50 (read off the curve)": "~8"}
    ]},
    {"molecular_target": "T2, Recombinant human FGFR4/Fc chimera (R&D …)", "assay": "ELISA: periplasmic extract on coated FGFR4-Fc (500 ng/ml)", "protocol": "In order to determine binding specificity to FGFR4, the clones were tested in an ELISA binding assay setup, using the monoclonal […]. Shortly, 500 ng/ml of Fc-FGFR4 (R&D Systems Cat #685 FR) was coated on Maxisorp ELISA plates (Nunc) and free binding sites were blocked using 4% Marvel skimmed milk in PBS. After a wash step with PBS, 10 ul of periplasmic extract from the monoclonal inductions of the different clones in 100 ul 2% Marvel PBS were allowed to bind to the FGFR4-Fc. […] 53-G3 was used as a reference since it was selected against PDGFRβ-Fc.", "values": [
      {"binder": "B12", "binding result": "binds"},
      {"binder": "B13", "binding result": "binds"},
      {"binder": "B14", "binding result": "binds"},
      {"binder": "B15", "binding result": "binds"}
    ]},
    {"molecular_target": "T1, Recombinant human PDGFRβ/Fc chimera …", "assay": "phage ELISA on PDGFRβ-Fc (0.1 ug/ml) captured by coated anti-human IgG, detection with HRP anti-M13", "protocol": "as §1", "values": [
      {"binder": "B16", "binding result": "binds"}
    ]},
    {"molecular_target": "T1, Recombinant human PDGFRβ/Fc chimera …", "assay": "competition ELISA: PDGFRβ-Fc (12 nM) pre-mixed with Nanobody, binding to coated PDGF-BB (80 nM), detection with HRP anti-human IgG", "protocol": "In order to determine the receptor blocking efficiency of clones tested positive for PDGF-BB competition, a dilution series of purified Nanobodies were tested in the ELISA-based ligand competition setup. In short, 1.0 ug/ml (80 nM) recombinant human PDGF-BB (R&D Systems #220-BB) was coated in 96 well Maxisorp microtiter plates (Nunc) and blocked with 4% Marvel skimmed milk in PBS. In parallel, 1 ug/ml (12 nM) PDGFRβ-Fc chimera was incubated with a dilution series of purified Nanobodies. After 1 hour, the receptor-Nanobody pre-mixes were incubated 1 hour with the coated ligand. Bound PDGFRβ-Fc was detected using HRP-conjugated goat anti-human IgG (Jackson Immunoresearch, Cat # 109-035-098). […] Ligand is coated at 80 nM and receptor is added at 12 nM.", "units": {"IC50 (read off the curve)": "nM"}, "values": [
      {"binder": "B17", "IC50 (read off the curve)": "~60"},
      {"binder": "B18", "IC50 (read off the curve)": "~8"},
      {"binder": "B19", "IC50 (read off the curve)": "~9"}
    ]}
  ]
}
